In patent US20160274129:

T1: α-fructosyl-valyl-histidyl-leucine
T1 chain: VHL

T2: α-fructosyl-valyl-histidyl-leucyl-threonyl-proryl-glutamyl-glutamyl-lysine
T2 chain: VHLTPEEK

T3: α-fructosyl-valyl-histidine
T3 chain: VH

T4: α-fructosyl-valyl-histidyl-leucyl-threonine
T4 chain: VHLT

T5: α-fructosyl-valyl-histidyl-leucyl-threonyl-proryl-glutamic acid
T5 chain: VHLTPE

T6: α-fructosyl-valyl-histidyl-leucyl-threonyl-proryl-glutamyl-glutamyl-lysyl-seryl-alanyl-valyl-threonyl-alanyl-leucyl-tryptophyl-glycine
T6 chain: VHLTPEEKSAVTALWG

T7: α-fructosyl-valyl-histidyl-leucyl-threonyl-proline
T7 chain: VHLTP


Legend:
[1] = biological target: T1, α-fructosyl-valyl-histidyl-leucine
[2] = biological target: T2, α-fructosyl-valyl-histidyl-leucyl-threon …
[3] = biological target: T3, α-fructosyl-valyl-histidine
[4] = biological target: T4, α-fructosyl-valyl-histidyl-leucyl-threon …
[5] = biological target: T5, α-fructosyl-valyl-histidyl-leucyl-threon …
[6] = biological target: T6, α-fructosyl-valyl-histidyl-leucyl-threon …
[7] = biological target: T7, α-fructosyl-valyl-histidyl-leucyl-threon …

Row | Protein | Specific activity (U/mg), 1 mM αF3P, purified enzyme [1] [U/mg] | Specific activity (U/mg), 1 mM αF8P, purified enzyme [2] [U/mg] | Specific activity (U/mg), 1 mM αFVH, purified enzyme [3] [U/mg] | Specific activity (U/mg), 1 mM αF4P, purified enzyme [4] [U/mg] | Specific activity (U/mg), 1 mM αF6P, purified enzyme [5] [U/mg] | fold of specific activity on αF6P against FAOAo2 (Amadoriase 25/Comparative Example 2) [5] | αF6P oxidation activity ratio (crude enzyme; CFP-T7-H28 = 100) (relative (CFP-T7-H28 = 100)) [5] | αF6P/αFV [5] | αF6P/αFVH [5] | Specific activity (U/mg), 1 mM αF16P, purified enzyme [6] [U/mg] | Specific activity (U/mg), 1 mM αF5P, purified enzyme [7] [U/mg] | αF6P oxidation activity (crude enzyme; αFVH oxidation activity = 100) (relative (αFVH = 100)) [5]
1 | CFP-T7-H35 (protein) MTSNRADTRVIVVGGGGTIGSSTALHLVRSGYAPANITVLDTFEIPSAQSAGHDLNKIMGIDHRNKVDLQMSLEARQMWKEDELFQPFFHNTGRMDCEHTPKGIEKLKKLYQKLHDAGAGLEKTHAWLDNEDEILSKMPLLQRDQIQGWKAIWSQDGGWLAAAKAINAIGQFLKERGVKFGFGGAGSFKQPLFDDEGTTCIGVETADGTKYYADKVVLAAGAWSPTLVDLEDQCCSKAWVYAHIQLTPEEAAEYKGVPVVYNGEFGFFFEPDEFGVIKVCDEFPGFSRFKEHQPYGAPSPKRISVPRSHAKHPTDTYPDASEVSIKKAIATFLPRFQDKELFNRALCWCTDTADSALLMCEHPKWKNFILATGDSGHSFKILPNVGKYVVELIEGRLPEEMAYQWRWRPGGDALKSRRAAPPKDLADMPGWKHDPKL | 1.24 | 1.59 | 1.9 | 0.352 | 4.27 | 2 times (Amadoriase 26/Comparative Example 3) to 1,940 times (Amadoriase 25/Comparative Example 2) | 206 | 0.323 | 2.25 | 0.247 | 2.15 | –
2 | CFP-T7 (protein) MTSNRADTRVIVVGGGGTIGSSTALHLVRSGYAPANITVLDTFEIPSAQSAGHDLNKIMGIRLRNKVDLQMSLEARQMWKEDELFQPFFHNTGRMDCEHTPEGIEDLKKQYQALHDAGAGLEKTHAWLDNEDEILSKMPLLQRDQIQGWKAIWSQDGGWLAAAKAINAIGQFLKERGVKFGFGGAGSFKQPLFDDEGTTCIGVETADGTKYYADKVVLAAGAWSPTLVDLEDQCCSKAWVYAHIQLTPEEAAEYKGVPVVYNGEFGFFFEPDEFGVIKVCDEFPGFSRFKEHQPYGAPSPKRISVPRSHAKHPTDTYPDASEVSIKKAIATFLPRFQDKELFNRALCWCTDTADAALLMCEHPKWKNFILATGDSGHSFKILPNVGKYVVELIEGRLPEEMAYQWRWRPGGDALKSRRAAPPKDLADMPGWKHDPKL | 0 | 0 | 16.5 | 0 | 0 | – | – | 0 | 0 | 0 | 0 | 0
